In patent US6034053A, “EGF-isoflavone conjugates for the prevention of restenosis” (Wayne Hughes Institute, priority 1998, dated 2000):
Entries after “also recorded” stand apart in the source; their conditions may differ.

Key:
[1] = test system: vascular smooth muscle cells (VSMC); experiment: Migration of VSMC through Matrigel matrix-coated Boyden chambers; type: cell-based; details: for Effect on migration of VSMC (in words): EGF-gen 0.25, 0.5, 1 μg/ml or EGF 1 μg/ml, overnight
Method: Migration of VSMC through Matrigel™ matrix was performed as described above for Example 4.
FIGS. 7A-7E show the morphological features of migrated VSMC incubated with 0.25 μg/ml (FIG. 7B), 0.5 μg/ml (FIG. 7C), or 1 μg/ml (FIG. 7D) of EGF-gen or with 1 μg/ml EFG (FIG. 7E), overnight. The control (FIG. 7A) was untreated. The cells were then trypsinized and processed for the migration assay using Matrigel™ matrix-coated boyden chambers. Cells migrated through the matrigel and were counted and expressed as % of controls. FIG. 7F is a bar graph showing the dose dependent inhibition of migration by EGF-Gen.

breast cancer cells = details: U.S. patent application Ser. No. 08/602,186; cited from earlier work
[2] = test system: vascular injury-induced neointimal hyperplasia; experiment: Murine restenosis model: photoactivated rose bengal vascular injury of the femoral artery, histomorphometric analysis; type: in vivo, C57B1/6 mice; details: for Stenosis Index (Mean ± SE), neointima/media ratio in areas of maximum neointimal hyperplasia, 2 weeks: 2 weeks after injury, EGF-Gen or unconjugated EGF 0.1 mg/kg/dose twice daily for 14 days; for Effect on neointimal hyperplasia / neointima formation (in words): injured femoral arteries, EGF-Gen at less than 5% of the highest nontoxic dose
Method: Three to four week old C57 B1/6 male mice (Taconic, Germantown, N.Y.) were housed in micro-isolator cages on a 12-hour day/night cycle and kept for 2 weeks on the Paigen's cocoa butter diet of 15.8% fat, 1.25% cholesterol and 0.5% sodium cholate (Harlan Teklad, Madison, Wis., U.S.A.) to induce high plasma cholesterol levels similar to those of patients with lipid disorders.
Mice were injected with 300 microliters of a 3 mg/ml photoactivated rose bengal solution (Aldrich, Milwaukee, Wis.) in sterile PBS via the tail vein and anesthetized with ketamine/xylazine solution (100 mg ketamine/kg and 5 […]). Photoactivation of rose bengal using percutaneous irradiation with a green light source (300 Watt Xenon arced lamp equipped with a 550 nanometer broad band interference filter, Oriel Scientific, Stratford, Conn.) was performed on the shaved left leg by placing a 3.2 mm glass fiber optic light guide directly into the left femoral vein/artery for 10 minutes. The unirradiated right femoral artery served as an internal control.
Following irradiation the mice were treated for either 14 days or 28 days with intraperitoneal injections of (1) EGF-Gen conjugate or unconjugated EGF (modified EGF not conjugated to genistein) at a dose level of 0. I mg/kg/dose once in the morning and once in the evening; or (2) 2 mg/kg/dose of unconjugated genistein or derivatives of 6,7-dimethoxyquinizalone dissolved in 10% DMSO once per day; or (3) with PBS.
At the times indicated, the animals were euthanized with ketamine/xylazine and perfused with PBS followed by 4% phosphate buffered formalin. PBS and formalin were pumped through the left ventricle of the heart and allowed to exit through a 3 mm incision through the interior wall of the right ventricle. The brain, thymus, heart, lung, liver, pancreas, kidney, spleen, intestine, stomach, muscle, skin adrenal, and testes were collected for pathological evaluation. For histopathological studies, tissues were fixed in 10% neutral buffered formalin, dehydrated and embedded in paraffin by routine methods. Tissue blocks containing the femoral artery/vein were excised and post-fixed in 4% phosphate buffered formalin overnight and processed for hemotoxylin and eosin (H&E) or Masson's trichrome staining. Glass slides were affixed with 6 micron tissue sections and were stained with hematoxylin and eosin or Masson's trichrome. Serial sections were examined for areas of maximum neointimal hyperplasia for which the ratios of neointima/media (stenosis index) were determined. This was necessary to compensate for angular differences among specimens. A Pixera camera (Pixera Corp., Calif., USA) was used for image capture and the NIH image 1.61(Rasband et al., 1995, Microbeam Analysis Soc. J. 4:137-149) program was used for histo-morphometric analysis.
All numeric data are shown as mean±SEM. Statistical analysis between groups was performed by Mann-Whitney t-test or Fisher's exact test using Instat, GraphPad Software, San Diego, Calif. Cumulative percentage plots were analyzed using Wilcoxon statistics by Statview, Abacus Concepts, Inc., Berkeley, Calif.
Vascular injury was induced in C57B1/6 mice as described for Example 2. Following irradiation, the mice were treated for either 14 days or 28 days with intraperitoneal injections of (1) EGF-Gen or unconjugated EGF (modified EGF not conjugated to genistein) at a dose level of 0.1 mg/kg/dose, once in the morning and once in the evening. For 14 day treatment, this dose represents a cumulative total dose level of 2.8 mg/kg and 2% of the highest nontoxic cumulative dosed tested in toxicity studies (Uckun et al., 1998, Clinical Cancer Res 5:1125-1134). For 28 day treatment, this dose represents a cumulative total dose level of 5.6 mg/kg and 4% of the highest nontoxic cumulative dosed tested in toxicity studies. Control animals were injected with 2 mg/kg/dose of unconjugated genistein or derivatives of 6, 7-dimethoxyquinizalone dissolved in 10% DMSO once per day or with PBS. […]

B1: EGF-Gen: rhEGF linked via the photoreactive cross-linker Sulfo-SANPAH to genistein at its C7 hydroxyl group (conjugate, UniProt P01133 23-1207, looked up)
Pro-epidermal growth factor: PQHWSCPEGTLAGNGNSTCVGPAPFLIFSHGNSIFRIDTEGTNYEQLVVDAGVSVIMDFHYNEKRIYWVDLERQLLQRVFLNGSRQERVCNIEKNVSGMAINWINEEVIWSNQQEGIITVTDMKGNNSHILLSALKYPANVAVDPVERFIFWSSEVAGSLYRADLDGVGVKALLETSEKITAVSLDVLDKRLFWIQYNREGSNSLICSCDYDGGSVHISKHPTQHNLFAMSLFGDRIFYSTWKMKTIWIANKHTGKDMVRINLHSSFVPLGELKVVHPLAQPKAEDDTWEPEQKLCKLRKGNCSSTVCGQDLQSHLCMCAEGYALSRDRKYCEDVNECAFWNHGCTLGCKNTPGSYYCTCPVGFVLLPDGKRCHQLVSCPRNVSECSHDCVLTSEGPLCFCPEGSVLERDGKTCSGCSSPDNGGCSQLCVPLSPVSWECDCFPGYDLQLDEKSCAASGPQPFLLFANSQDIRHMHFDGTDYGTLLSQQMGMVYALDHDPVENKIYFAHTALKWIERANMDGSQRERLIEEGVDVPEGLAVDWIGRRFYWTDRGKSLIGRSDLNGKRSKIITKENISQPRGIAVHPMAKRLFWTDTGINPRIESSSLQGLGRLVIASSDLIWPSGITIDFLTDKLYWCDAKQSVIEMANLDGSKRRRLTQNDVGHPFAVAVFEDYVWFSDWAMPSVMRVNKRTGKDRVRLQGSMLKPSSLVVVHPLAKPGADPCLYQNGGCEHICKKRLGTAWCSCREGFMKASDGKTCLALDGHQLLAGGEVDLKNQVTPLDILSKTRVSEDNITESQHMLVAEIMVSDQDDCAPVGCSMYARCISEGEDATCQCLKGFAGDGKLCSDIDECEMGVPVCPPASSKCINTEGGYVCRCSEGYQGDGIHCLDIDECQLGEHSCGENASCTNTEGGYTCMCAGRLSEPGLICPDSTPPPHLREDDHHYSVRNSDSECPLSHDGYCLHDGVCMYIEALDKYACNCVVGYIGERCQYRDLKWWELRHAGHGQQQKVIVVAVCVVVLVMLLLLSLWGAHYYRTQKLLSKNPKNPYEESSRDVRSRRPADTEDGMSSCPQPWFVVIKEHQDLKNGGQPVAGEDGQAADGSMQPTSWRQEPQLCGMGTEQGCWIPVSSDKGSCPQVMERSFHMPSYGTQTLEGGVEKPHSLLSANPLWQQRALDPPHQMELTQ
modifications: Pro-epidermal growth factor genistein via Sulfo-SANPAH cross-linker
[1]
  Effect on migration of VSMC (in words): inhibited the migration of VSMC in a dose dependent fashion
[1]; overnight incubation, then Matrigel migration assay
  Concentration giving complete cessation of in vitro migration of VSMC: 1 µg/mL
Breast cancer cells
  Potency of the conjugate relative to unconjugated Genistein: 1000 fold
[2]; i.p.
  Stenosis Index (Mean ± SE), neointima/media ratio in areas of maximum neointimal hyperplasia, 2 weeks: 0.0±0.0
[2]; i.p. 0.1 mg/kg/dose twice daily, 0.1 mg/kg
  Mice with neointimal hyperplasia detected, 2 weeks after vascular injury: none of the 5; also recorded: none of the five
[2]; 4 weeks after injury, i.p., EGF-Gen 0.1 mg/kg/dose twice daily for 28 days, Gen or quinazolines 2 mg/kg/dose once per day in 10% DMSO
  Stenosis Index (Mean ± SE), neointima/media ratio in areas of maximum neointimal hyperplasia, 4 weeks: 0.59±0.16
[2]; 4 weeks, i.p. 0.1 mg/kg/dose twice daily
  Mice with neointima detected, 4 weeks post injury: all of the 24
[2]
  Effect on neointimal hyperplasia / neointima formation (in words): significantly reduced the magnitude of neointimal hyperplasia
[2]; listed as EGF-Genistein
  Effect on neointimal hyperplasia / neointima formation (in words): suppressed migration of myofibroblasts into the mural thrombus and the formation of neointima

B2: EGF: unconjugated EGF (modified EGF not conjugated to genistein) (protein, UniProt P01133 23-1207, looked up)
Pro-epidermal growth factor: B1 Pro-epidermal growth factor
modifications: Pro-epidermal growth factor
[1]
  Effect on migration of VSMC (in words): significantly promoted the migration
[2]; i.p.
  Stenosis Index (Mean ± SE), neointima/media ratio in areas of maximum neointimal hyperplasia, 2 weeks: 0.63 ± 0.20
[2]; i.p., listed as unconjugated EGF
  Stenosis Index (Mean ± SE), neointima/media ratio in areas of maximum neointimal hyperplasia, 2 weeks: 0.63±0.20
[2]; i.p. 0.1 mg/kg/dose twice daily
  Mice with neointimal hyperplasia detected, 2 weeks after vascular injury: 6 of 8
[2]
  Effect on neointimal hyperplasia / neointima formation (in words): ineffective
